Measurements from IntAct's records for PubMed 21378754.

Columns and labels:
[1] = molecular target: rab8a_human RAB8A (UniProt P61006)
[2] = molecular target: rab5a_human RAB5A (UniProt P20339)
[3] = molecular target: rab1b_human RAB1B (UniProt Q9H0U4)
[4] = molecular target: rab8a_human RAB8A (UniProt P61006); remark: listed apart in the source
[5] = molecular target: rab6a_human RAB6A (UniProt P20340)
[6] = molecular target: rab8a_human RAB8A (UniProt P61006); remark: listed apart in the source

Sequence of Inositol polyphosphate 5-phosphatase OCRL (Homo sapiens), Q01968 F668V (Q01968 whole entry F668V): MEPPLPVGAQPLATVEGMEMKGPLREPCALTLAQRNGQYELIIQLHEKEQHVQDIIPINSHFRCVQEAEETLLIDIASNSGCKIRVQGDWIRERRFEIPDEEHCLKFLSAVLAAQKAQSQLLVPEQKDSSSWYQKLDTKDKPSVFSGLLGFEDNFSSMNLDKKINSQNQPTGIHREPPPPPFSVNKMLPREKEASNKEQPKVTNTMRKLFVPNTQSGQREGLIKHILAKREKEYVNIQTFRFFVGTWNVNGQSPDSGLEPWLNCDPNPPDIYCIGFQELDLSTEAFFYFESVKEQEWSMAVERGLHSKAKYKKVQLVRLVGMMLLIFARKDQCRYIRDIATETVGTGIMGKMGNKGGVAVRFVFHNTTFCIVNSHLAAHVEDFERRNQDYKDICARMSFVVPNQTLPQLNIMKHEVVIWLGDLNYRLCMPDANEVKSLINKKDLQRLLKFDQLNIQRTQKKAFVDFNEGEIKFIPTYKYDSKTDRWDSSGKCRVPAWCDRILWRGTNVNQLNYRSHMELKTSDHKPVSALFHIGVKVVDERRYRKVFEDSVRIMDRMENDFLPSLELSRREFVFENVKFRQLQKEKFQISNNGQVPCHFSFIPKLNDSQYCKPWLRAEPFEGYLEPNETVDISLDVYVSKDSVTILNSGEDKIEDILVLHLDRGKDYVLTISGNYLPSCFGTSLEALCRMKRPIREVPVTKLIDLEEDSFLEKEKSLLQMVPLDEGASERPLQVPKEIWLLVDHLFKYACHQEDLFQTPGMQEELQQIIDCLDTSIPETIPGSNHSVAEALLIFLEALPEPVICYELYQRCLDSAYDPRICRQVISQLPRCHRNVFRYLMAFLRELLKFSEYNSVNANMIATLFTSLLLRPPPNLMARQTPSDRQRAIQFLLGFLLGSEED
Sequence of rab8a_human RAB8A (P61006 whole entry): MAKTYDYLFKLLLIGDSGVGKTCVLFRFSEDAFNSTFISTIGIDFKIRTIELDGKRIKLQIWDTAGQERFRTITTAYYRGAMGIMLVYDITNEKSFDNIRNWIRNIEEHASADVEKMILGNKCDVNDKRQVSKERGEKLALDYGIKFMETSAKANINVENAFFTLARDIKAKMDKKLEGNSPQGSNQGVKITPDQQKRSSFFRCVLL
Sequence of Inositol polyphosphate 5-phosphatase OCRL (Homo sapiens), Q01968 F668A (Q01968 whole entry F668A): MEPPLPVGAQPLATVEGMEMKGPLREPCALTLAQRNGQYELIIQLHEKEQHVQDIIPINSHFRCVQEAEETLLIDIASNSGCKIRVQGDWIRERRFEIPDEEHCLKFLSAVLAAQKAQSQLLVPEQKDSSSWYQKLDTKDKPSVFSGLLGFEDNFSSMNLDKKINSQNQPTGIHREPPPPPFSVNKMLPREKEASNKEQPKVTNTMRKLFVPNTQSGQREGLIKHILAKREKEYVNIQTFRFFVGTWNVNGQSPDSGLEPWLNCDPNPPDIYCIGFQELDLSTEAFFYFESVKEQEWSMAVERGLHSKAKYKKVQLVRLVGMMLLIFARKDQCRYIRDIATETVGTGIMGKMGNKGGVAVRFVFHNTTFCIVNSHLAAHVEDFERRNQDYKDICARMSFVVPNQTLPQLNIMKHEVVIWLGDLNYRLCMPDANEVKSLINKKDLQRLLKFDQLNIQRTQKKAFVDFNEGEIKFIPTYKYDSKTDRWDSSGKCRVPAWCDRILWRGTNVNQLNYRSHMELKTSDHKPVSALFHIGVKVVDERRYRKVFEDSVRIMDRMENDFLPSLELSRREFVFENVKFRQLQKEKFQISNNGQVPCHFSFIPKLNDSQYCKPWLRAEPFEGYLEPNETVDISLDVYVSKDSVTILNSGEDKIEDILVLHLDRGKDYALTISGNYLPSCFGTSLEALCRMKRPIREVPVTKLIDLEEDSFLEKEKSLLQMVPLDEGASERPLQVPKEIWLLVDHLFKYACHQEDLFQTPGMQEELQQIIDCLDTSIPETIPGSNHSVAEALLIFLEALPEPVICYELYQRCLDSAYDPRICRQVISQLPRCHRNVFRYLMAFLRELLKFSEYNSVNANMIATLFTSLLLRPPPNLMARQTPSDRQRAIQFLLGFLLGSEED
Sequence of rab6a_human RAB6A (P20340 whole entry, looked up): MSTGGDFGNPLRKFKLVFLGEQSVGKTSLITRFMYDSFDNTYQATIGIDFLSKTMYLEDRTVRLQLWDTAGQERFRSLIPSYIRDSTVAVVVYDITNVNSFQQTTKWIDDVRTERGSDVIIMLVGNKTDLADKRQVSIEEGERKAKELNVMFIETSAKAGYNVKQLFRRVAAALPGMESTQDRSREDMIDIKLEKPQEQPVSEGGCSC
Sequence of rab1b_human RAB1B (Q9H0U4 whole entry): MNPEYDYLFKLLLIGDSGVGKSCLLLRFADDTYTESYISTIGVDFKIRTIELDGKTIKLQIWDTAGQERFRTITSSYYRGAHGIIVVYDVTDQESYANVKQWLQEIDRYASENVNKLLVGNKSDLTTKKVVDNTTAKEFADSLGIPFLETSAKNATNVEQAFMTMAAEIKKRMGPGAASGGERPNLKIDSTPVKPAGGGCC
Sequence of rab5a_human RAB5A (P20339 whole entry): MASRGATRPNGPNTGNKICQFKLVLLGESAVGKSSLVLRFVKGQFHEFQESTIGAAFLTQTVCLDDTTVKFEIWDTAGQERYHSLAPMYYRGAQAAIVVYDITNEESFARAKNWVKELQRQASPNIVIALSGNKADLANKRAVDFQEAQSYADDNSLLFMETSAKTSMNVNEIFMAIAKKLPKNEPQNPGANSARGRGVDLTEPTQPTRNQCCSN

“Inositol polyphosphate 5-phosphatase OCRL (Homo sapiens), Q01968 F668A” was tested, and the “effect of a mutation on the interaction” value [1] was “decreasing interaction” and the “effect of a mutation on the interaction” value [2] was “disrupting interaction”.

For “Inositol polyphosphate 5-phosphatase OCRL (Homo sapiens), Q01968 F668V”, the “effect of a mutation on the interaction” value [3] was “disrupting interaction”, the “effect of a mutation on the interaction” value [4] was “decreasing interaction” and the “effect of a mutation on the interaction” value [5] was “disrupting interaction”. The “effect of a mutation on the interaction” value [6] was “disrupting interaction”.
